The results in this text go back to patent US20220204609A1 (SHANDONG BOAN BIOTECHNOLOGY, published 2022).

Assay [1] addresses T1, Claudin18.2 on cells (human, UniProt P56856-2 1-261). The assay is described as follows: cell-based or functional assay.
Assay [2] concerns the target T1, Claudin18.2 on cells. The assay can be described thus: cell-based or functional assay. This is another data set of the same source.
Assay [3] addresses T1, Claudin18.2 on cells. The assay can be described thus: flow cytometry on NUGC4 cells, antibody at 3 µg/mL.
Description: (§1) Each candidate antibody was serially diluted with FACS buffer (sterile PBS, 0.2% BSA), and added to the 96-well round-bottom plate at 50 μL/well before an incubation at 4° C. for 1 h. The supernatant was discarded after centrifugation at 2000 rpm for 3 min.
The target in assay [4] is T1, Claudin18.2 on cells. The assay is described as follows: flow cytometry on NUGC4 cells, antibody at 1.5 µg/mL.
Description: as §1
The target in assay [5] is T1, Claudin18.2 on cells. The assay is described as follows: flow cytometry on NUGC4 cells, antibody at 0.75 µg/mL.
Description: as §1
Assay [6] addresses T1, Claudin18.2 on cells. The assay can be described thus: flow cytometry on 293T-Claudin18.2 cells, antibody at 3 µg/mL.
Description: as §1
Assay [7] has as its target T2, Claudin18.1 on cells (human, UniProt P56856 1-261).
T2 construct: whole, on cells
The assay can be described thus: flow cytometry on 293T-Claudin18.1 cells, antibody at 3 µg/mL.
Description: as §1

The target in assay [8] is T1, Claudin18.2 on cells. The assay is described as follows: flow cytometry on 293T-Claudin18.2 cells, antibody at 1.5 µg/mL.
Description: as §1
Assay [9] addresses T2, Claudin18.1 on cells. The assay can be described thus: flow cytometry on 293T-Claudin18.1 cells, antibody at 1.5 µg/mL.
Description: as §1
Assay [10] concerns the target T1, Claudin18.2 on cells. The assay can be described thus: flow cytometry on 293T-Claudin18.2 cells, antibody at 0.75 µg/mL.
Description: as §1
Assay [11] addresses T2, Claudin18.1 on cells. The assay can be described thus: flow cytometry on 293T-Claudin18.1 cells, antibody at 0.75 µg/mL.
Description: as §1
Assay [12] deals with T1, Claudin18.2 on cells. The assay can be described thus: flow cytometry on 293T-Claudin18.2 cells, antibody at 0.375 µg/mL.
Description: as §1
In assay [13] the target is T2, Claudin18.1 on cells. The assay is described as follows: flow cytometry on 293T-Claudin18.1 cells, antibody at 0.375 µg/mL.
Description: as §1
In assay [14] the target is T1, Claudin18.2 on cells. The assay is described as follows: flow cytometry on NUGC4 cells, antibody at 3 µg/mL. This is another data set of the same source.
Description: as §1
In assay [15] the target is T1, Claudin18.2 on cells. The assay is described as follows: flow cytometry on NUGC4 cells, antibody at 1.5 µg/mL. This is another data set of the same source.
Description: as §1
The target in assay [16] is T1, Claudin18.2 on cells. The assay can be described thus: flow cytometry on NUGC4 cells, antibody at 0.75 µg/mL. The source holds these as a separate data set.
Description: as §1
For assay [17], the target named is T1, Claudin18.2 on cells. The assay is described as follows: cell-based or functional assay. This is another data set of the same source.
Assay [18] concerns the target T1, Claudin18.2 on cells. The assay is described as follows: cell-based or functional assay. This is another data set of the same source.
In assay [19] the target is T1, Claudin18.2 on cells. The assay is described as follows: flow cytometry on 293T-Claudin18.2 cells, antibody at 1.5 µg/mL. The source holds these as a separate data set.
Description: as §1
Assay [20] concerns the target T1, Claudin18.2 on cells. The assay is described as follows: flow cytometry on 293T-Claudin18.2 cells, antibody at 0.75 µg/mL. This is another data set of the same source.
Description: as §1
The target in assay [21] is T1, Claudin18.2 on cells. The assay is described as follows: flow cytometry on 293T-Claudin18.2 cells, antibody at 0.375 µg/mL. The source holds these as a separate data set.
Description: as §1

Positions count from the first letter of the chain named. Read-outs that look alike come from different tables or passages of the source.

B1: CLD389-CA802-IgG1 (antibody, V domains shown)
VH: QVQLVESGGGVVQPGRSLRLSCAASGFTFSSYAMHWVRQVPGKGLEWVAIISYDGSIKYYADSVKGQFTISRDNSKNTLSLQMNSLRPEDTAVYYCARDPTMVRGVRGMDVWGQGTTVTVSS
VL: DIQMTQSPSSLSASVGDRVTITCRASQGIRNDLGWYQQKPGKAPKLLIYAASSLQSGVPSRFSGSGSGTDFTLTISSLQPEDFATYYCLQDYNYPLTFGGGTKLEIKR
notes: Complete IgG1 made in HEK293 cells
Consider B1, for which, in the assay with Claudin18.2 on cells [1], the “ADCC inhibition rate, %, antibody 0.1 µg/mL, 293T-Claudin18.2 target cells, PBMC effectors, LDH” value amounted to 25.6%. Moreover, in the assay with Claudin18.2 on cells [1], the “ADCC inhibition rate, %, antibody 1 µg/mL, 293T-Claudin18.2 target cells, PBMC effectors, LDH” value (“ADCC inhibition rate, %, antibody 1 µg/mL … LDH” for short) was determined as 61.4%. In the assay with Claudin18.2 on cells [1], the “ADCC inhibition rate, %, antibody 10 µg/mL, 293T-Claudin18.2 target cells, PBMC effectors, LDH” value (from here on “ADCC inhibition rate, %, antibody 10 µg/mL … LDH”) turned out to be 61.2%. In the assay with Claudin18.2 on cells [2], the “ADCC EC50 (µg/mL), NUGC4 target cells, Jurkat reporter effector cells, Bio-Glo” value (shortened to “ADCC EC50 (µg/mL), NUGC4 target cells”) came to 15.7 µg/mL. The mean fluorescence intensity with Claudin18.2 on cells [3] came to 113000; in the assay with Claudin18.2 on cells [4], 58100; with Claudin18.2 on cells [5] it was 24400; in the assay with Claudin18.2 on cells [6], 1.23e+06; with Claudin18.1 on cells [7] it was 194000; with Claudin18.2 on cells [8] it was 1.05e+06. Besides, the mean fluorescence intensity in the assay with Claudin18.1 on cells [9] turned out to be 163000; with Claudin18.2 on cells [10], 774000; with Claudin18.1 on cells [11] it was 141000; with Claudin18.2 on cells [12], 495000; with Claudin18.1 on cells [13], 96700.

B2: CLD389-CA852-IgG1 (antibody, V domains shown)
VH: B1 VH with V40A, I50V, I57K, Q67R, S80Y, P88A
VL: B1 VL with D1E, Q3V, S10T, V15I, L104V
notes: as for B1
Consider B2, for which the “ADCC inhibition rate, %, antibody 0.1 µg/mL, 293T-Claudin18.2 target cells, PBMC effectors, LDH” value in the assay with Claudin18.2 on cells [1] was -0.212%. For the same molecule, the “ADCC inhibition rate, %, antibody 1 µg/mL … LDH” value with Claudin18.2 on cells [1] worked out at 12.3%. In addition, in the assay with Claudin18.2 on cells [1], the “ADCC inhibition rate, %, antibody 10 µg/mL … LDH” value came out at 39.9%. In addition, the mean fluorescence intensity in the assay with Claudin18.2 on cells [14] turned out to be 18400; with Claudin18.2 on cells [15] it was 12000; with Claudin18.2 on cells [16], 9230; with Claudin18.2 on cells [6], 742000; in the assay with Claudin18.2 on cells [8], 578000; with Claudin18.2 on cells [10] it was 365000. Further, the mean fluorescence intensity with Claudin18.2 on cells [12] was 196000.

B3: CLD389-279-IgG1 (antibody, V domains shown)
VH: EVQLVQSGGGVVQPGRSLRLSCAASGFTFSNYAMHWVRQAPGKGLEWVAVISYDGSNKYYADSVKGRFTISRDNSKNTLYLQMNSLRAEDTAVYYCARELRFFDWLLGRAFDIWGQGTMVTVSS
VL: B1 VL with D1E, Q3V, S9P, L96W, G100Q
notes: Complete IgG1 made in HEK293 cells; also called C279; CLD389-C279
In the case of B3, the “ADCC inhibition rate, %, antibody 0.1 µg/mL, 293T-Claudin18.2 target cells, PBMC effectors, LDH” value in the assay with Claudin18.2 on cells [1] came out at 7.53%. Moreover, the “ADCC inhibition rate, %, antibody 1 µg/mL … LDH” value with Claudin18.2 on cells [1] stood at 16.1%. Besides, the “ADCC inhibition rate, %, antibody 10 µg/mL … LDH” value in the assay with Claudin18.2 on cells [1] amounted to 41%. In addition, in the assay with Claudin18.2 on cells [2], the “ADCC EC50 (µg/mL), NUGC4 target cells” value is 0.81 µg/mL. For the same molecule, the mean fluorescence intensity in the assay with Claudin18.2 on cells [3] came out at 158000; in the assay with Claudin18.2 on cells [4] it was 78300; with Claudin18.2 on cells [5], 40000; with Claudin18.2 on cells [6] it was 1.24e+06; in the assay with Claudin18.2 on cells [8], 1.06e+06; with Claudin18.2 on cells [10], 776000. The molecule also displayed a mean fluorescence intensity in the assay with Claudin18.2 on cells [12] of 488000.

B4: IMAB362 (antibody, human IgG1, kappa, V domains shown)
VH: QVQLQQPGAELVRPGASVKLSCKASGYTFTSYWINWVKQRPGQGLEWIGNIYPSDSYTNYNQKFKDKATLTVDKSSSTAYMQLSSPTSEDSAVYYCTRSWRGNSFDYWGQGTTLTVSS
VL: DIVMTQSPSSLTVTAGEKVTMSCKSSQSLLNSGNQKNYLTWYQQKPGQPPKLLIYWASTRESGVPDRFTGSGSGTDFTLTISSVQAEDLAVYYCQNDYSYPFTFGSGTKLEIKR
Take B4: the “ADCC inhibition rate, %, antibody 0.1 µg/mL, 293T-Claudin18.2 target cells, PBMC effectors, LDH” value with Claudin18.2 on cells [1] was determined as 20.8%. Besides, in the assay with Claudin18.2 on cells [1], the “ADCC inhibition rate, %, antibody 1 µg/mL … LDH” value stood at 41.4%. Further, the “ADCC inhibition rate, %, antibody 10 µg/mL … LDH” value with Claudin18.2 on cells [1] stood at 60.6%. In addition, the “ADCC inhibition rate, %, antibody 0.5 µg/mL, 293T-Claudin18.2 target cells, PBMC effectors, LDH” value with Claudin18.2 on cells [17] was determined as 18%. Further, in the assay with Claudin18.2 on cells [17], the “ADCC inhibition rate, %, antibody 5 µg/mL, 293T-Claudin18.2 target cells, PBMC effectors, LDH” value is 45%. Further, the “ADCC inhibition rate, %, antibody 50 µg/mL, 293T-Claudin18.2 target cells, PBMC effectors, LDH” value with Claudin18.2 on cells [17] was 49%. Also, the results for the “ADCC EC50 (µg/mL), NUGC4 target cells” value in the assay with Claudin18.2 on cells [18] and in the assay with Claudin18.2 on cells [2] were 2.15 µg/mL and 2.56 µg/mL, respectively. Further, the mean fluorescence intensity with Claudin18.2 on cells [3] worked out at 131000; with Claudin18.2 on cells [14], 117000; with Claudin18.2 on cells [4], 97100; in the assay with Claudin18.2 on cells [15] it was 93500; in the assay with Claudin18.2 on cells [5], 69600; with Claudin18.2 on cells [16], 55400. In addition, the mean fluorescence intensity in the assay with Claudin18.2 on cells [6] came to 902000; with Claudin18.2 on cells [8], 849000; with Claudin18.2 on cells [19] it was 878000; with Claudin18.2 on cells [10], 689000; with Claudin18.2 on cells [20], 650000; with Claudin18.2 on cells [12], 498000. Further, the mean fluorescence intensity with Claudin18.2 on cells [21] is 407000.

B5: CLDQ1-CA841-IgG1 (antibody, V domains shown)
VH: QVQLVQSGAEVKKPGSSVKVSCKASGGTFSSYAISWVRQAPGQGLEWMGRIIPILGIANYAQKFQGRVTVTADKSTSTAYMELSSLRSEDTAVYYCARERDNWDPYYYYYGMDVWGQGTTVTVSS
VL: DIQMTQSPSTLSASVGDRVTITCRASQSINSWLAWYQQKPGKAPKLLIYKASSLESGVPSRFSGSGSGTEFTLTISSLQPDDFATYYCQQYNSFPLTFGGGTKVEIKR
notes: as for B1
Take B5: the “ADCC inhibition rate, %, antibody 0.1 µg/mL, 293T-Claudin18.2 target cells, PBMC effectors, LDH” value with Claudin18.2 on cells [1] was found to be 15.6%. In addition, in the assay with Claudin18.2 on cells [1], the “ADCC inhibition rate, %, antibody 1 µg/mL … LDH” value is 27.2%. The “ADCC inhibition rate, %, antibody 10 µg/mL … LDH” value in the assay with Claudin18.2 on cells [1] came out at 58.5%. Besides, the “ADCC EC50 (µg/mL), NUGC4 target cells” value with Claudin18.2 on cells [18] was found to be 17.3 µg/mL. In addition, the mean fluorescence intensity came to 32400 with Claudin18.2 on cells [3]; 13200 in the assay with Claudin18.2 on cells [4]; 11100 with Claudin18.2 on cells [5]; 1.09e+06 with Claudin18.2 on cells [6]; 11000 in the assay with Claudin18.1 on cells [7]; 855000 in the assay with Claudin18.2 on cells [8]. In addition, the mean fluorescence intensity is 37900 in the assay with Claudin18.1 on cells [9]; 583000 in the assay with Claudin18.2 on cells [10]; 18100 with Claudin18.1 on cells [11]; 308000 with Claudin18.2 on cells [12]; 21500 with Claudin18.1 on cells [13].
